Laboratory results from the supplement of paper PMC9170038.

System: MS2 coat protein
Experiment: apparent KD of MS2 coat protein; designed switch direction (-1 OFF switch, 1 ON switch): -1; higher = weaker reporter binding
How it was run: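 Normalised cluster fluorescence was curve-fitted, and each design's median over clusters is its apparent KD. Before this, SNAP-549-labelled MS2 coat protein was titrated from 0.7 or 1.5 nM, doubling to 3 µM, over RNA switches transcribed on Illumina chips by stalled E. coli RNA polymerase. Titrations had no input, 200 uM small-molecule ligand, or an oligonucleotide input, and steps lasted 0.8–1.5 h (lowest) to 10–20 min (highest).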

[1] = Eterna round: R95, input ligand: FMN 200 uM
[2] = Eterna round: R95, input ligand: microRNA oligo, concentration not stated
[3] = Eterna round: R95, input ligand: none
[4] = input ligand: microRNA oligo, concentration not stated

Sequence | apparent KD of MS2 coat protein [1] [nM] | apparent KD of MS2 coat protein [2] [nM] | apparent KD of MS2 coat protein [3] [nM] | apparent KD of MS2 coat protein (input ligand: FMN 200 uM) [nM] | apparent KD of MS2 coat protein (input ligand: none) [nM] | apparent KD of MS2 coat protein [4] [nM]
GAGGAGCAAGGAUAUACGAGGAGAGGGAAGAGAGGAGAGAGACAUGAGGAUCACCCAUGUAGAAGGUGCAAGGA [JR_Exclu2_Sub092] (puzzle: Exclusion 2) | 46 | 35.4 | 43.8 | – | – | –
GAGGGAGGAGGAUAUUCCUUCGAGAACAUGAGGAUCACCCAUGUGUUAUAUCGAAAGCCCGAAGAAGGCCUCGCUA [Eternabot (Original) Solution 50] (Eterna round: R97, puzzle: Exclusion 5) | – | – | – | 17.5 | 20.2 | –
GAGGUGUUAGGAUAUCGGAGAUGGAGAAGAACGGGAAGAGGCGAGAAGGAACAUGAGGAUCACCCAUGUAGGUG [JR_Exclu4_Sub029] (puzzle: Exclusion 4) | – | 357 | – | – | – | –
GAGUAGGUAGGAUAUACGAUAAUAUAGGGUAGAUAUAUAACACAUGAGGAUCACCCAUGUAGAAGGACCAUGAG [Mat - Exclusion 2 - Mod of my Tesla design - D62] (puzzle: Exclusion 2) | 118 | 37.1 | 35.1 | – | – | –
GAGUGCUGAGGAUAUACAUGAGGAUCACCCAUGUACUUCAGCUAGGAGACUAGCAUUGGUAGAAGGCAGUACUC [Mod of lroppy 22 - Jieux - Exclusion 3] (Eterna round: R97, puzzle: Exclusion 3) | – | – | – | 20.7 | 14.2 | –
GAUAAGGUAGGAUAUACGAAUAAAUAGGGUAGAAUAAUAACACAUGAGGAUCACCCAUGUAGAAGGACCAAUAG [Mat - Exclusion 2 - Mod of my Tesla design - D26] (puzzle: Exclusion 2) | 38.9 | 25.6 | 26.3 | – | – | –
GAUAAUGAAGGAUAUACAGGCGGUCCGUGACUAGUCUUCAUACAUGAGGAUCACCCAUGUAGAAGGUCAAUGUU [Eternabot (L1) Solution 64] (Eterna round: R97, puzzle: Exclusion 2) | – | – | – | 23.3 | 14.4 | –
GAUACACAUGAGGAUCACCCAUGUGAGGAUAUGCGUACGUUGUCCGUAGGCGACGUGCGCAGAAGGCGCGAGGU [Mat - Mod of JL D92] (puzzle: Exclusion 1) | – | 31.8 | – | – | – | –
GAUAGAGCAGGAUAUCGAGAUCCGCACAUGAGGAUCACCCAUGUUCGGUCGAAAGACCGACGAGAAGGGCUGUAUC [Omei Ex5 E7] (Eterna round: R97, puzzle: Exclusion 5) | – | – | – | 838 | 4190 | –
GAUCAACAUGAGGAUCACCCAUGUCAGGAUAUGAUACUAUGUACUUCGGUACAUAGUAUCAGAAGGGACAGAUC [Ex1-3: 1] (puzzle: Exclusion 1) | – | 101 | – | – | – | –
GAUCGACAUGAGGAUCACCCAUGUCAGGAUAUCGUCACUGGAGCUUCGGCUCCAGUGACGAGAAGGGAUAUAAU [E1/16-A1] (Eterna round: R97, puzzle: Exclusion 1) | – | – | – | 26.3 | 36.1 | –
GAUGAGAGAGGAUAUACAUGAGGAUCACCCAUGUAAUUUUCGGACAUGGAAGCUGGAUGUAGAAGGCUCGCAUG [Leritete] (puzzle: Exclusion 3) | – | 19.6 | – | – | – | –
GAUGCCAGAGGAUAUGCAUCGGGUUCCUGGUUAAGGCUGCCACAUGAGGAUCACCCAUGUAGAAGGCUGCCGUC [EX2 B.5] (Eterna round: R97, puzzle: Exclusion 2) | – | – | – | 17.4 | 9.94 | –
GAUGGACAUGAGGAUCACCCAUGUAAGGAUAUACGGUUGGUAGAGAGAGAGAGGAAUGGUAGAAGGUACGGAGG [JR_Exclu1_Sub052] (puzzle: Exclusion 1) | 38.7 | 43.1 | 55.9 | – | – | –
GAUGUCCAGCGAGGAUAUCUGGUAAAUAAAAUGAGAGAAGGCGCGAAGACAUGAGGAUCACCCAUGUUGUCGCAUGGGAGCCUG [Enqurete] (Eterna round: R96, puzzle: Exclusion NG 1) | – | – | – | 116 | 29.1 | 22.9
GAUGUGGGUUUUCAGAGUAACAUGAGGAUCACCCAUGUAGAAGUUGAAGGUAUCAAGCGAAUGGCUCGUCAUAUGUG [JR_SV3TOV1_Sub050] (puzzle: Sensor v3, turn-off variant 1) | 161 | 239 | 322 | – | – | –

Sequence | apparent KD of MS2 coat protein [1] [nM] | apparent KD of MS2 coat protein [2] [nM] | apparent KD of MS2 coat protein [3] [nM] | apparent KD of MS2 coat protein (input ligand: FMN 200 uM) [nM] | apparent KD of MS2 coat protein (input ligand: none) [nM] | apparent KD of MS2 coat protein [4] [nM]
GAUUAACAUGAGGAUCACCCAUGUGAGGAUAUUGACUUGCUCACUUUCCGAUUCGAGUCGAGAAGGCGCAUCUU [1986#117] (Eterna round: R97, puzzle: Exclusion 1) | – | – | – | 23.9 | 21.9 | –
GAUUAAUGCAAGGAUAUGCUAUUAAUUUAUUUUGCAGAAGGUGCAACAUGAGGAUCACCCAUGUUGGAGGGUAU [JR_E6_Sub027] (Eterna round: R96, puzzle: Exclusion 6) | – | – | – | 34.9 | 25.1 | 17.8
GAUUAAUGCAAGGAUAUGCUAUUAAUUUAUUUUGCAGAAGGUGCAACAUGAGGAUCACCCAUGUUGGAGGGUAU [JR_E6_Sub027] (puzzle: Exclusion 6) | – | 18.8 | – | – | – | –
GAUUAUGCAAGCUUUUGGGACAUGAGGAUCACCCAUGUUCGUCUUAUUGAUCUAGGUACGCUGACGUACCUAGAUCU [JL-sv1-2.32 Brourd mod] (Eterna round: R96, puzzle: Sensor v3, turn-off variant 1) | – | – | – | 14.8 | 17.2 | 52.1
GAUUAUGCAAGCUUUUGGGACAUGAGGAUCACCCAUGUUCGUCUUAUUGAUCUAGGUACGCUGACGUACCUAGAUCU [JL-sv1-2.32 Brourd mod] (puzzle: Sensor v3, turn-off variant 1) | 18.1 | 62.2 | 17.6 | – | – | –
GAUUAUGCGAGCUUUAGGGACAUGAGGAUCACCCAUGUUCGUCUUAUUGGUCUAGAUGCACUAACAUACCUAAAUCU [JMF 26] (puzzle: Sensor v3, turn-off variant 1) | 18 | 24.4 | 18.2 | – | – | –
GAUUCGCGAGGAUAUACAGUCGAGUCCAUUACGUGUCUCGGACUUGAGGAUCACCCAAGUAGAAGGCGUCUCAU [salish99_ex2_r4_637] (Eterna round: R97, puzzle: Exclusion 2) | – | – | – | 55.8 | 57.8 | –
GAUUGACAUGAGGAUCACCCAUGUGAGGAUAUCGGCCGGACCGUGUUAGCUUCCGUCGCGAGAAGGCGCAUAGG [Exclusion 1 V38] (puzzle: Exclusion 1) | 42.3 | 42.8 | 36.7 | – | – | –
GAUUGACAUGAGGAUCACCCAUGUGAGGAUAUCGUCUGGUACGUGUUGGCUGGCAUCUCGAGAAGGCGCAUAGG [Exclusion 1 V56] (puzzle: Exclusion 1) | 103 | 59.4 | 76.4 | – | – | –
GAUUUGUAAGGAUAUCGUGCAAGUUUCAAAAGAGGCUUGUGCGAGAAGGUACAUGAGGAUCACCCAUGUAGGUU [Omei Ex4 B13] (Eterna round: R97, puzzle: Exclusion 4) | – | – | – | 42.6 | 24.1 | –
GCAAGAGCAGGAUAUCUAAUAUAUCACAUGAGGAUCACCCAUGUCCAGCGAAAGCUGGAGGGAGAAGGGCUCUUGC [Mat - Exclusion 5 - Eli mod - D101] (puzzle: Exclusion 5) | 58.9 | 123 | 150 | – | – | –
GCAAGCUUUUUCAAUAACAACAUGAGGAUCACCCAUGUUUAAGCUAUUACUUUUGGGCUCUUUAGUGCUAGUCUUAU [JR_STOV1_Sub037] (Eterna round: R97, puzzle: Sensor, turn-off variant 1) | – | – | – | 19.1 | 17.7 | –
GCACAGGCAGGAUAUACAUGAGGAUCACCCAUGUGAUCCCUUAAGUACAAAAGUACUAGUAGAAGGGCCUGUGC [Omei Ex3 Model Bachelor's Dilema v47] (Eterna round: R97, puzzle: Exclusion 3) | – | – | – | 646 | 1210 | –
GCACAGUGAGGAUAUACAUGAGGAUCACCCAUGUCCGCCGAUUAAGAGGUAUCAACGUGUAGAAGGUACCAGCG [Eternabot (Original) Solution 25] (Eterna round: R97, puzzle: Exclusion 3) | – | – | – | 17.2 | 18.5 | –
GCACGAAGUGUAGGAUAUCUGUGCGAUUAGCUCAGAGAAGGACACAUGAGGAUCACCCAUGUGUUCCGCGGAAGCAAAACGUGC [Eli exng1 - 056] (Eterna round: R96, puzzle: Exclusion NG 1) | – | – | – | 11.2 | 11.4 | 9.08
